In patent publication US20260146107A1 (ALLIGATOR BIOSCIENCE, published 2026):
Residue numbers refer to the chain shown, from its start. Blank lines part the entries; values can stand above or below the binder they belong to.

What was measured:
[1] = biological target: T1, human CEACAM1, recombinant (R&D Systems #2244-CM-050) (human, UniProt P13688 35-428); experiment: ELISA, antigen coated at 0.5 µg/mL, IgG1 antibody at 10 µg/ml, anti-human kappa-HRP, luminescence
T1 construct: also called hCEACAM-1
T1 sequence (looked up): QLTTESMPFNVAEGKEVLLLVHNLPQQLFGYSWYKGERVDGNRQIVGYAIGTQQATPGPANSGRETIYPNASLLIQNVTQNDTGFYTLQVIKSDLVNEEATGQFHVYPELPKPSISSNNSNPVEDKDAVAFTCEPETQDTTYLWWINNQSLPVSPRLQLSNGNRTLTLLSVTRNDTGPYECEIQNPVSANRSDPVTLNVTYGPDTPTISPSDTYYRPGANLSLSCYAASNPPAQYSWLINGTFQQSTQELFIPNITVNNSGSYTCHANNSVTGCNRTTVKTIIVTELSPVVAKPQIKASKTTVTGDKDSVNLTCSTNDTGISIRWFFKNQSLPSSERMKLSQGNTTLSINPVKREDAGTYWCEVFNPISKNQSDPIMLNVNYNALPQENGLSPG
Description: (§1) 96-well plates were coated with 0.5 μg/mL antigen, hCEACAM-5 (4128-CM-050, R&D Systems), hCEACAM-1 (2244-CM-050, R&D Systems), hCEACAM-6(3934-CM-050, R&D Systems) or CEACAM-8 (9639-CM-050, R&D Systems) in PBS over night at 4° C. After washing with PBS/0.05% Tween 20 (PBST), the plates were blocked with PBST, 2% BSA for at least 30 minutes at room temperature before a second round of washing. […] After washing, plates were incubated with 50 μl detection antibody (0.5 μg/ml HRP conjugated goat anti human-kappa light chain, #STAR127P, AbD Serotec). Finally, a final round of washing was performed and bound complexes detected using SuperSignal Pico Luminescent as substrate and luminescence signals were measured using Fluostar Optima.

[2] = biological target: human CD40 expressed on cells (CD40 reporter cells, HEK Blue CD40L cells, primary B cells, tumour APCs) (human, UniProt P25942 21-277); experiment: cell-based or functional assay
Chain of human CD40 expressed on cells (CD40 reporter cells, HEK Blue CD40L cells, primary B cells, tumour APCs) (P25942 21-277): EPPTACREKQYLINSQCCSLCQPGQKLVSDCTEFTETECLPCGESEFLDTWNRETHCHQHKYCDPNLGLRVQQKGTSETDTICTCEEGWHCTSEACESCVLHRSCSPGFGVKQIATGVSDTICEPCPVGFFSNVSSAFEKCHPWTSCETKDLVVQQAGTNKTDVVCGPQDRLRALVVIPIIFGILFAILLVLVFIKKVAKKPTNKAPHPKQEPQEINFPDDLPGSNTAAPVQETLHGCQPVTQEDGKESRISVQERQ

[3] = biological target: T2, human CEACAM5, recombinant (R&D Systems #4128-CM-050) (human, UniProt P06731 35-685); experiment: Octet BLI, IgG1 captured on AHC tips, CEACAM5-His in solution, 1:1 fit
T2 construct: Bought; coated in ELISA and used as monomeric analyte in Octet; also called hCEACAM-5; Human CEACAM5-His; not shown: His tag
T2 sequence (looked up): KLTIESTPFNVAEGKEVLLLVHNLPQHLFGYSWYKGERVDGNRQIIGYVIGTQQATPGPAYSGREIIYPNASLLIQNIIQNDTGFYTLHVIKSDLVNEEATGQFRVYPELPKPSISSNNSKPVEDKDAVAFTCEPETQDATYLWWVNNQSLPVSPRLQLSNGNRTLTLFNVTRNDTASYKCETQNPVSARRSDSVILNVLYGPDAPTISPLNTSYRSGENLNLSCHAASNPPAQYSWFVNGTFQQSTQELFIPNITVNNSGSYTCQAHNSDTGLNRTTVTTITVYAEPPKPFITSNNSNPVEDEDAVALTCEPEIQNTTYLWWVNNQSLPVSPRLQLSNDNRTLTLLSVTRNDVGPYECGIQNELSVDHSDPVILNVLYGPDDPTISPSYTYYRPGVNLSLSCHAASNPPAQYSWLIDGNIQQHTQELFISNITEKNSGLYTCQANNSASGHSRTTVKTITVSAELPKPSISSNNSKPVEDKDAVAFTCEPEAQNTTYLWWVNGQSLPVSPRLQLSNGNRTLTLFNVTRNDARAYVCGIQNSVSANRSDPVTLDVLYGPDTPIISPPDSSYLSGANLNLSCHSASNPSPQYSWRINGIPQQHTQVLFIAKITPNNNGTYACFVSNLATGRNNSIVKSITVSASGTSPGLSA
Description: Kinetic measurements were performed in the Octet RED96 platform using several different setups. Monoclonal antibodies (listed in Table 9), serially diluted ½ starting at 100 nM, were captured to anti human IgG Fc Capture (AHC) Biosensor tips (Sartorius #18-5060). Human CEACAM5-His (R&D Systems #4128-CM-050) diluted in 1× kinetic buffer (Sartorius) at 100 nM was then added. Binding kinetics was studied in 1× kinetic buffer where association was allowed for 300 sec followed by dissociation for 600 sec. Sensor tips were regenerated with 10 mM Glycine pH 1.7. Data generated were referenced by subtracting blank or parallel buffer blank, the baseline was aligned to the y-axis, inter-step correction by alignment against dissociation was performed and the data was smoothed by Savitzky-Golay filter in the data analysis software (v9.0.0.14). The processed data was fitted using a 1:1 Langmuir binding model with R² or X² as a measurement of fitting accuracy.

[4] = biological target: T2, human CEACAM5, recombinant (R&D Systems …); experiment: ELISA, antigen coated at 0.5 µg/mL, IgG1 antibody at 10 µg/ml, anti-human kappa-HRP, luminescence
Description: as §1

- binding result [1]: no binding (tested: 10 µg/ml)
B1: AC_05099 (antibody, V domains shown)
VH: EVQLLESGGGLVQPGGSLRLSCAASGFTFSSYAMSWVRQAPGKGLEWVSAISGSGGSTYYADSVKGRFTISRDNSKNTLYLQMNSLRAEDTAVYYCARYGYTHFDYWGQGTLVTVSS
VL: DIQMTQSPSSLSASVGDRVTITCRASQSISSYLNWYQQKPGKAPKLLIYAASSLQSGVPSRFSGSGSGTDFTLTISSLQPEDFATYYCQQAGNPHTFGQGTKLEIK

- EC50 of SEAP release, HEK Blue CD40L reporter cells, bsAb crosslinked to CHO-CEACAM5 cells, 0 Raji sink cells/well [2]: 0.04 nM
- EC50 of SEAP release, same assay, 10 000 Raji sink cells/well [2]: 0.06 nM
- EC50 of SEAP release, same assay, 30 000 Raji sink cells/well [2]: 0.11 nM
- EC50 of SEAP release, same assay, 90 000 Raji sink cells/well [2]: 0.36 nM
B2: Multi42 (bispecific antibody, human IgG1, kappa, L234A L235A)
chain 1: not shown
chain 2: EIVLTQSPGTLSLSPGERATLSCRASQSVSSSYLAWYQEKPGQAPRLLIYGASSRATGIPDRFSGSGSGTDFTLTISRLEPEDFAVYYCQQYWYPLTFGQGTKLEIKRTVAAPSVFIFPPSDEQLKSGTASVVCYLNNFYPREAKVQWKVDNALQSGNSQESVTEQDSKDSTYSLWSTLTLSKADYEKHKVYACEVTHQGLSSPVTKSFNRGEC
chain 3: EVQLLESGGGLVQPGGSLRLSCAASGFTFSTYGMHWVREAPGKGLEWLSYISGGSSYIFYADSVKGRFTISRDNSKNTLYLQMNSLRAEDTAVYYCARILRGGSGMDLWGQGTLVTVSSASTKGPSVFPLAPSSKSTSGGTAALGCLVKDYFPEPVTVSWNSGALTSGVHTFPAVLQSSGLYSLTSVVEVPSSSLGTQTYICNVNHKPSNTKVDKKVEPKSC

- binding result [1]: no binding (tested: 10 µg/ml)
- Kd [3]: 100 nM
- koff [3]: 0.008 s⁻¹
- kon [3]: 60000 M⁻¹ s⁻¹
B3: AC_05081 (antibody, human IgG1, kappa, V domains shown)
VH: EVQLLESGGGLVQPGGSLRLSCAASGFTFSSSYMGWVRQAPGKGLEWVSSIGSGSYSTSYADSVKGRFTISRDNSKNTLYLQMNSLRAEDTAVYYCARYPSVPFQPHLDYWGQGTLVTVSS
VL: DIQMTQSPSSLSASVGDRVTITCRASQSISSYLNWYQQKPGKAPKLLIYAASSLQSGVPSRFSGSGSGTDFTLTISSLQPEDFATYYCQQAGNPHTFGQGTKLEIKR

- Kd [3]: < 0.001 nM
- koff [3]: < 1e-07 s⁻¹
- kon [3]: 300000 M⁻¹ s⁻¹
B4: AC_05059 (antibody, human IgG1, kappa, V domains shown)
VH: B3 VH with Q105P
VL: B3 VL

- binding result [1]: binds
- Kd [3]: 0.008 nM
- koff [3]: 2e-06 s⁻¹
- kon [3]: 200000 M⁻¹ s⁻¹
B5: AC_05080 (antibody, V domains shown)
VH: B3 VH with Q105P, H107L
VL: B1 VL

- binding result [1]: no binding (tested: 10 µg/ml)
- Kd [3]: 40 nM
- koff [3]: 0.01 s⁻¹
- kon [3]: 300000 M⁻¹ s⁻¹
B6: AC_05089 (antibody, human IgG1, kappa, V domains shown)
VH: B3 VH with Q105P, P106H
VL: B3 VL

- binding result [4]: no binding (tested: 10 µg/ml)
- binding result [1]: no binding (tested: 10 µg/ml)
B7: AC_05092 (antibody, V domains shown)
VH: B3 VH with Q105P
VL: B1 VL with Y32D

- binding result [4]: binds
- binding result [1]: binds
B8: AC_05087 (antibody, V domains shown)
VH: B3 VH with S101P, Q105P
VL: B1 VL

- binding result [4]: binds
- binding result [1]: no binding (tested: 10 µg/ml)
B9: AC_05079 (antibody, human IgG1, kappa, V domains shown)
VH: B3 VH with Q105P, H107P
VL: B3 VL

- binding result [1]: no binding (tested: 10 µg/ml)
- Kd [3]: 0.4 nM
- koff [3]: 0.0001 s⁻¹
- kon [3]: 300000 M⁻¹ s⁻¹
B10: AC_05093 (antibody, human IgG1, kappa, V domains shown)
VH: B3 VH with Q105P, L108V
VL: B3 VL

- binding result [1]: no binding (tested: 10 µg/ml)
- Kd [3]: 2 nM
- koff [3]: 0.0003 s⁻¹
- kon [3]: 200000 M⁻¹ s⁻¹
B11: AC_05091 (antibody, human IgG1, kappa, V domains shown)
VH: B3 VH with Q105P, L108F
VL: B3 VL

- binding result [1]: no binding (tested: 10 µg/ml)
- Kd [3]: 20 nM
- koff [3]: 0.004 s⁻¹
- kon [3]: 300000 M⁻¹ s⁻¹
B12: AC_05090 (antibody, human IgG1, kappa, V domains shown)
VH: B3 VH with Q105P, P106L
VL: B3 VL

- binding result [4]: binds
- binding result [1]: binds
B13: AC_05095 (antibody, V domains shown)
VH: B3 VH with Q105P, P106S
VL: B1 VL

- binding result [4]: binds
- binding result [1]: binds
B14: AC_05086 (antibody, V domains shown)
VH: B3 VH with R98H, Q105P
VL: B1 VL

- binding result [1]: no binding (tested: 10 µg/ml)
- Kd [3]: 50 nM
- koff [3]: 0.0008 s⁻¹
- kon [3]: 20000 M⁻¹ s⁻¹
B15: AC_05094 (antibody, human IgG1, kappa, V domains shown)
VH: B3 VH with Q105P, L108W
VL: B3 VL

- binding result [1]: no binding (tested: 10 µg/ml)
- Kd [3]: 0.07 nM
- koff [3]: 2e-05 s⁻¹
- kon [3]: 200000 M⁻¹ s⁻¹
B16: AC_05097 (antibody, human IgG1, kappa, V domains shown)
VH: B3 VH with Q105S
VL: B3 VL

- binding result [1]: no binding (tested: 10 µg/ml)
- Kd [3]: 20 nM
- koff [3]: 0.03 s⁻¹
- kon [3]: 1e+06 M⁻¹ s⁻¹
B17: AC_05088 (antibody, human IgG1, kappa, V domains shown)
VH: B3 VH with P103L, Q105P
VL: B3 VL
